B1: 030217-E05 (protein)
chain: MALPVTALLLPLALLLHAARPDEIVLTQSPATLSLSPGERATLSCSASSSVSYMHWYQQKPGQAPRLLIYDTSKLASGIPARFSGSGSGTDFTLTISSLEPEDVAVYYCFQGSVYPFTFGQGTKLEIKRGGGGSGGGGSGGGGSQVQLQESGPGLVKPSQTLSLTCTVSGGSISTSGMGVGWIRQHPGKGLEWIGHIWWDDDKRYNPALKSRVTISVDTSKNQFSLKLSSVTAADTAVYYCARMELWSYYFDYWGQGTLVTVSSLEGKPIPNPLLGLDSTGSGEDLKNVFPPEVAVFEPSKAEIAHTQKATLVCLATGFYPDHVELSWWVNGKEVHSGVCTDPQPLKEQPALNDSRYCLSSRLRVSATFWQNPRNHFRCQVQFYGLSENDEWTQDRAKPVTQIVSAEAWGRADCGITSASYHQGVLSATILYEILLGKATLYAVLVSALVLMAMVKRKDSRGRAKRSGSGATNFSLLKQAGDVEENPGPTSTMALPVTALLLPLALLLHAARPDEIVLTQSPGSLAVSPGERVTMSCKSSQSVFFSSSQKNYLAWYQQIPGQSPRLLIYWASTRESGVPDRFTGSGSGTDFTLTISSVQPEDLAIYYCHQYLSSRTFGQGTKLEIKRGGGGSGGGGSGGGGSQVQLQQPGAEVVKPGASVKMSCKASGYTFTSYYIHWIKQTPGQGLEWVGVIYPGNDDISYNQKFQGKATLTADKSSTTAYMQLSSLTSEDSAVYYCAREVRLRYFDVWGQVTTVTVSSTREQKLISEEDGSGIQNPDPAVYQLRDSKSSDKSVCLFTDFDSQTNVSQSKDSDVYITDKCVLDMRSMDFKSNSAVAWSNKSDFACANAFNNSIIPEDTFFPSSDVPCDVKLVEKSFETDTNLNFQNLSVIGFRILLLKVAGFNLLMTLRLWSSRAKRSGSGVKQTLNFDLLKLAGDVESNPGPSRGHMTEYKPTVRLATRDDVPRAVRTLAAAFADYPATRHTVDPDRHIERVTELQELFLTRVGLDIGKVWVADDGAAVAVWTTPESVEAGAVFAEIGPRMAELSGSRLAAQQQMEGLLAPHRPKEPAWFLATVGVSPDHQGKGLGSAVVLPGVEAAERAGVPAFLETSAPRNLPFYERLGFTVTADVEVPEGPRTWCMTRKPGA
B2: 030217-H02 (protein)
chain: MALPVTALLLPLALLLHAARPDEIVLTQSPATLSLSPGERATLSCSASSSVSYMHWYQQKPGQAPRLLIYDTSKLASGIPARFSGSGSGTDFTLTISSLEPEDVAVYYCFQGSVYPFTFGQGTKLEIKRGGGGSGGGGSGGGGSQVQLQESGPGLVKPSQTLSLTCTVSGGSISTSGMGVGWIRQHPGKGLEWIGHIWWDDDKRYNPALKSRVTISVDTSKNQFSLKLSSVTAADTAVYYCARMELWSYYFDYWGQGTLVTVSSLEGKPIPNPLLGLDSTGSGEDLKNVFPPEVAVFEPSKAEIAHTQKATLVCLATGFYPDHVELSWWVNGKEVHSGVCTDPQPLKEQPALNDSRYCLSSRLRVSATFWQNPRNHFRCQVQFYGLSENDEWTQDRAKPVTQIVSAEAWGRADCGITSASYHQGVLSATILYEILLGKATLYAVLVSALVLMAMVKRKDSRGRAKRSGSGATNFSLLKQAGDVEENPGPTSMALPVTALLLPLALLLHAARPDIQMTQSTSSLSASLGDRVTISCSASQGINNYLNWYQQKPDGTVELLIYYTSTLQSGVPSRFSGSGSGTDYSLTISNLEPEDIGTYYCQQYSKLPRTFGGGTKLEIKGGGGSGGGGSGGGGSQVQLQQSGSELMMPGASVKISCKATGYTFSNYWIEWVKQRPGHGLEWIGEILPGTGRTIYNEKFKGKATFTADISSNTVQMQLSSLTSEDSAVYYCARRDYYGNFYYAMDYWGQGTSVTVSSTREQKLISEEDGSGIQNPDPAVYQLRDSKSSDKSVCLFTDFDSQTNVSQSKDSDVYITDKCVLDMRSMDFKSNSAVAWSNKSDFACANAFNNSIIPEDTFFPSSDVPCDVKLVEKSFETDTNLNFQNLSVIGFRILLLKVAGFNLLMTLRLWSSRAKRSGSGVKQTLNFDLLKLAGDVESNPGPSRGHMTEYKPTVRLATRDDVPRAVRTLAAAFADYPATRHTVDPDRHIERVTELQELFLTRVGLDIGKVWVADDGAAVAVWTTPESVEAGAVFAEIGPRMAELSGSRLAAQQQMEGLLAPHRPKEPAWFLATVGVSPDHQGKGLGSAVVLPGVEAAERAGVPAFLETSAPRNLPFYERLGFTVTADVEVPEGPRTWCMTRKPGA
B3: 030217-G04 (protein)
chain: MALPVTALLLPLALLLHAARPDEIVLTQSPATLSLSPGERATLSCSASSSVSYMHWYQQKPGQAPRLLIYDTSKLASGIPARFSGSGSGTDFTLTISSLEPEDVAVYYCFQGSVYPFTFGQGTKLEIKRGGGGSGGGGSGGGGSQVQLQESGPGLVKPSQTLSLTCTVSGGSISTSGMGVGWIRQHPGKGLEWIGHIWWDDDKRYNPALKSRVTISVDTSKNQFSLKLSSVTAADTAVYYCARMELWSYYFDYWGQGTLVTVSSLEGKPIPNPLLGLDSTGSGEDLKNVFPPEVAVFEPSKAEIAHTQKATLVCLATGFYPDHVELSWWVNGKEVHSGVCTDPQPLKEQPALNDSRYCLSSRLRVSATFWQNPRNHFRCQVQFYGLSENDEWTQDRAKPVTQIVSAEAWGRADCGITSASYHQGVLSATILYEILLGKATLYAVLVSALVLMAMVKRKDSRGRAKRSGSGATNFSLLKQAGDVEENPGPTSMALPVTALLLPLALLLHAARPDDIVMTQSPDSLTVSLGERTTINCKSSQSVLDSSKNKNSLAWYQQKPGQPPKLLLSWASTRESGIPDRFSGSGSGTDFTLTIDSLQPEDSATYYCQQSAHFPITFGQGTRLEIKGGGGSGGGGSGGGGSQVQLVQSGAEVKKPGASVKVSCKASGYTFTNYGMNWVKQAPGQGLKWMGWINTYTGEPTYADDFKGRVTMTSDTSTSTAYLELHNLRSDDTAVYYCARWSWSDGYYVYFDYWGQGTTVTVSSTREQKLISEEDGSGIQNPDPAVYQLRDSKSSDKSVCLFTDFDSQTNVSQSKDSDVYITDKCVLDMRSMDFKSNSAVAWSNKSDFACANAFNNSIIPEDTFFPSSDVPCDVKLVEKSFETDTNLNFQNLSVIGFRILLLKVAGFNLLMTLRLWSSRAKRSGSGVKQTLNFDLLKLAGDVESNPGPSRGHMTEYKPTVRLATRDDVPRAVRTLAAAFADYPATRHTVDPDRHIERVTELQELFLTRVGLDIGKVWVADDGAAVAVWTTPESVEAGAVFAEIGPRMAELSGSRLAAQQQMEGLLAPHRPKEPAWFLATVGVSPDHQGKGLGSAVVLPGVEAAERAGVPAFLETSAPRNLPFYERLGFTVTADVEVPEGPRTWCMTRKPGA
B4: 040716-I04 (protein)
chain: MALPVTALLLPLALLLHAARPDEIVLTQSPATLSLSPGERATLSCSASSSVSYMHWYQQKPGQAPRLLIYDTSKLASGIPARFSGSGSGTDFTLTISSLEPEDVAVYYCFQGSVYPFTFGQGTKLEIKRGGGGSGGGGSGGGGSQVQLQESGPGLVKPSQTLSLTCTVSGGSISTSGMGVGWIRQHPGKGLEWIGHIWWDDDKRYNPALKSRVTISVDTSKNQFSLKLSSVTAADTAVYYCARMELWSYYFDYWGQGTLVTVSSLEGKPIPNPLLGLDSTGSGEDLKNVFPPEVAVFEPSKAEIAHTQKATLVCLATGFYPDHVELSWWVNGKEVHSGVCTDPQPLKEQPALNDSRYCLSSRLRVSATFWQNPRNHFRCQVQFYGLSENDEWTQDRAKPVTQIVSAEAWGRADCGITSASYHQGVLSATILYEILLGKATLYAVLVSALVLMAMVKRKDSRGRAKRSGSGATNFSLLKQAGDVEENPGPTSTMALPVTALLLPLALLLHAARPDIVMTQTPLTLSVTIGQPASISCKSSQSLLDSDGKTYLNWLLQRPGQSPERLIYLVSKLDSGVPDRFTGSGSGTDFTLKISRVEAEDLGVYCCWQGTHFPYTFGGGTKVEIKGGGGGSGGGGSGGGGSQVQLQQPGAELVRPGASVKLSCKASGYTFTSYWMNWVKQRPGQGLEWIGMIDPSDSETHYNHIFKDKATLTVDKSSSTAYLQLSSLTSEDSAVYYCARNLYLWGQGTSVTVSSTREQKLISEEDGSGIQNPDPAVYQLRDSKSSDKSVCLFTDFDSQTNVSQSKDSDVYITDKCVLDMRSMDFKSNSAVAWSNKSDFACANAFNNSIIPEDTFFPSSDVPCDVKLVEKSFETDTNLNFQNLSVIGFRILLLKVAGFNLLMTLRLWSSRAKRSGSGVKQTLNFDLLKLAGDVESNPGPSRGHMTEYKPTVRLATRDDVPRAVRTLAAAFADYPATRHTVDPDRHIERVTELQELFLTRVGLDIGKVWVADDGAAVAVWTTPESVEAGAVFAEIGPRMAELSGSRLAAQQQMEGLLAPHRPKEPAWFLATVGVSPDHQGKGLGSAVVLPGVEAAERAGVPAFLETSAPRNLPFYERLGFTVTADVEVPEGPRTWCMTRKPGA
modifications: Synthetic polynucleotide encoding a SIR
B5: 041216 G04 (protein)
chain: MALPVTALLLPLALLLHAARPDEIVLTQSPATLSLSPGERATLSCSASSSVSYMHWYQQKPGQAPRLLIYDTSKLASGIPARFSGSGSGTDFTLTISSLEPEDVAVYYCFQGSVYPFTFGQGTKLEIKRGGGGSGGGGSGGGGSQVQLQESGPGLVKPSQTLSLTCTVSGGSISTSGMGVGWIRQHPGKGLEWIGHIWWDDDKRYNPALKSRVTISVDTSKNQFSLKLSSVTAADTAVYYCARMELWSYYFDYWGQGTLVTVSSLEGKPIPNPLLGLDSTGSGEDLKNVFPPEVAVFEPSKAEIAHTQKATLVCLATGFYPDHVELSWWVNGKEVHSGVCTDPQPLKEQPALNDSRYCLSSRLRVSATFWQNPRNHFRCQVQFYGLSENDEWTQDRAKPVTQIVSAEAWGRADCGITSASYHQGVLSATILYEILLGKATLYAVLVSALVLMAMVKRKDSRGRAKRSGSGATNFSLLKQAGDVEENPGPTSMDWIWRILFLVGAATGAHSFEVQLVESGGGLVQAGGSLRLSCAASGSIFSGNVMGWYRRQAPGKEREWVAAIASGGSIYYRDSVKGRFTISRDNAKNTVYLQMNSLKPEDTAVYYCNSHPPTLPYWGLGTQVTVSSTREQKLISEEDGSGIQNPDPAVYQLRDSKSSDKSVCLFTDFDSQTNVSQSKDSDVYITDKCVLDMRSMDFKSNSAVAWSNKSDFACANAFNNSIIPEDTFFPSSDVPCDVKLVEKSFETDTNLNFQNLSVIGFRILLLKVAGFNLLMTLRLWSSRAKRSGSGVKQTLNFDLLKLAGDVESNPGPSRGHMTEYKPTVRLATRDDVPRAVRTLAAAFADYPATRHTVDPDRHIERVTELQELFLTRVGLDIGKVWVADDGAAVAVWTTPESVEAGAVFAEIGPRMAELSGSRLAAQQQMEGLLAPHRPKEPAWFLATVGVSPDHQGKGLGSAVVLPGVEAAERAGVPAFLETSAPRNLPFYERLGFTVTADVEVPEGPRTWCMTRKPGA
modifications: Synthetic polynucleotide encoding a SIR

Test system: target antigen-expressing cell line
Assay: Jurkat NFAT-GFP assay, coculture with target cell lines expressing the respective target antigen (summary Table 10A)
Type: cell-based, human
Set-up: key: The signs +/−, +, 2+ etc. after the name of the cell lines indicate the relative degree of positivity on the Jurkat-NFAT-GFP assay as measured by the % GFP positive cells; +: relative degree of positivity on the Jurkat-NFAT-GFP assay as measured by the % GFP positive cells; 2+: relative degree of positivity on the Jurkat-NFAT-GFP assay as measured by the % GFP positive cells
Conditions: relative % GFP positive cells; for NFAT-GFP ASSAY Positive Cell lines: RAJI: SIR-expressing Jurkat-NFAT-GFP cells cocultured with RAJI; for NFAT-GFP ASSAY Positive Cell lines: NALM6: SIR-expressing Jurkat-NFAT-GFP cells cocultured with NALM6
Outline: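 Stable SIR expression in Jurkat-NFAT-GFP cells by lentiviral transfer and puromycin selection; coculture with target cells (E:T approximately 1:2) for 4 to 18 hours; flow cytometric measurement of NFAT-driven GFP; scoring as positive when % GFP-positive cells exceeds that of parental reporter cells.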

Molecule | NFAT-GFP ASSAY Positive Cell lines: RAJI | NFAT-GFP ASSAY Positive Cell lines: NALM6 | NFAT-GFP ASSAY Positive Cell lines: L363 (SIR-expressing Jurkat-NFAT-GFP cells cocultured with L363) | NFAT-GFP ASSAY Positive Cell lines: U266 (SIR-expressing Jurkat-NFAT-GFP cells cocultured with U266)
B1 | RAJI (+) |  |  | 
B2 | RAJI (2+), NALM6 | (+) |  | 
B3 | RAJI (+), NALM6 (+) | RAJI (+), NALM6 (+) |  | 
B4 | RAJI (+/−), U266 |  | (+/−), L363 (+/−) | (+/−), L363 (+/−)
B5 | RAJI (+/−) |  |  | 

Reference: patent US12269859B2, “Synthetic immune receptors and methods of use thereof” (Angeles Therapeutics, Inc., priority 2016, dated 2025)
